{"source": "patent US20250277199", "about": "“NOVEL CRISPR-CAS NUCLEASES FROM METAGENOMES” (Brain Biotech AG, published 2025)", "binders": {"B1": {"name": "malQ gRNA (BMC stem-loop + 24 nt spacer) ; malQ protospacer (ssRNA ; dsDNA)", "RNA": "GAUUUCUACUAUUGUAGAUGUGGCGGUACGUUGAUGCAUCGCG", "DNA 1": "GTGGCGGTACGTTGATGCATCGCG", "DNA 2": "CGCGATGCATCAACGTACCGCCAC"}}, "target": "T1, BMC13 (uncultured bacterium (metagenome))", "T1 chain": "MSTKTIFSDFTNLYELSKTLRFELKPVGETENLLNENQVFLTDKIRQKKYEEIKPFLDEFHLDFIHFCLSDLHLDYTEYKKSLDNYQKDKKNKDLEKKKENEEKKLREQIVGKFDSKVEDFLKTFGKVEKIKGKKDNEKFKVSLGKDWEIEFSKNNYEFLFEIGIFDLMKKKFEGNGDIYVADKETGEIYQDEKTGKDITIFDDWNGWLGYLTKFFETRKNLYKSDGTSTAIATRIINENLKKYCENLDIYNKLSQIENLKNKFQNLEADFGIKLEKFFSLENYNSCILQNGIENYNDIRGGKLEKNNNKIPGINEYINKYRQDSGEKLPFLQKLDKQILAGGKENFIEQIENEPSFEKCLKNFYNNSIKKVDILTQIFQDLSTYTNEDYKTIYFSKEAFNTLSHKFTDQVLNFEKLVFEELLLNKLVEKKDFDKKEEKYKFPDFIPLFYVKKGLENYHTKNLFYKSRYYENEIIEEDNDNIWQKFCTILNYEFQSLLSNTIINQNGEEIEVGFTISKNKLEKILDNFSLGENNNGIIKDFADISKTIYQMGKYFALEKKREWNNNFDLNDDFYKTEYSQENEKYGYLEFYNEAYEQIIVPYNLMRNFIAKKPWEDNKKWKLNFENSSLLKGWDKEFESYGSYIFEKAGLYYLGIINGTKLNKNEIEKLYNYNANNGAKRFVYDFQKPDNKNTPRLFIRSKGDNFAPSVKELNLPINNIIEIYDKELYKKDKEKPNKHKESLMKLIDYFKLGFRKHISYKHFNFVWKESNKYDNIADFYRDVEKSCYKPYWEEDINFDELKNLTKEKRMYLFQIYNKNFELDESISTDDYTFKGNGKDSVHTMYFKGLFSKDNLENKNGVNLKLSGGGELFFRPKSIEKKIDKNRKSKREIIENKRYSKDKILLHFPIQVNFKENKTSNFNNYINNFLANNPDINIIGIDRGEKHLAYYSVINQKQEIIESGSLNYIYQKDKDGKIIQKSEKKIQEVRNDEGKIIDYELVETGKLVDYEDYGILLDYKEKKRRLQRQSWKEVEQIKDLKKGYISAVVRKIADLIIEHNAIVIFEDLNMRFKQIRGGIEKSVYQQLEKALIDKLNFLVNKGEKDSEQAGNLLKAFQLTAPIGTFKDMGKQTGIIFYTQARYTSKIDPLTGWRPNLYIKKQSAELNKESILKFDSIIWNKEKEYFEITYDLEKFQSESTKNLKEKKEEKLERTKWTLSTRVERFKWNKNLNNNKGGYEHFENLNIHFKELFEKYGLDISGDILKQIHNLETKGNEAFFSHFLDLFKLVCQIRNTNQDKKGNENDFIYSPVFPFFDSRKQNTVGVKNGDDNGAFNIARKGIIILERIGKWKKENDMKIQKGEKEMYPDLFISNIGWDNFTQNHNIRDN", "test": "cell_activity; PAM not stated; E. coli depletion, 30 C", "summary_of_the_method": "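E. coli carrying arabinose-induced (0.2%) BMC nuclease, grown at 30° C., made electrocompetent and electroporated with 50-100 ng plasmid carrying gRNA against malQ. Transformants plated on selective M9-glucose agar with kanamycin/ampicillin (± nourseothricin), and growth scored after 48 h at 30° C.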"}
{"binder": "B1", "values": [{"measurement": "activity", "value": "> 99.9", "unit": "% colony reduction"}]}
